Test results from US10677782B2, “Methods of determining interferon having direct inhibitory effects on tumors and uses thereof” (SUPERLAB FAR EAST LIMITED, priority 2013, dated 2020).

Experiments:
human hepatoma SMMC-7721 = assay: Human hepatoma SMMC-7721 xenografts in nude mice (Example 1); assay type: in vivo; settings: for TV (mm^3, mean ± SD) (D0): day 0, start of treatment
Description: The test article was used without dilution. It was stored at 4° C. until thawed for injection.
The animals used were 4-6 weeks old male BALB/cA nu/nu mice, weighing about 23±2 g, obtained from the Shanghai Institute of Materia Medica (Shanghai, P.R. China). The study protocol was reviewed by the Committee on the Use and Care of Animals of Shanghai Institute of Materia Medica for compliance with regulations, and Committee approval was obtained prior to study initiation. Wherever possible, procedures used in this study were designed to avoid or minimize discomfort, distress, and pain to the animals. Animals that experience severe or chronic pain or distress that could not be relieved were painlessly euthanized, in accordance to regulations. Animals were housed 6 to a cage. They were ear-marked with ear hole punch identification. The room temperature was maintained at 25° C.±1° C. Lighting was set at 12 hr on and 12 hr off. Food was provided ad libitum. City tap water, filtered with a 5 micrometer (μm) filter, was provided to the animals ad libitum via water bottles. Neither the Study Director nor Huiyang Life Science and Technology Corp. was aware of any contaminant in the food or water that would interfere with or influence the intent and purpose of this study.
The test article (rSIFN-co) and the vehicle control were each administered intratumorally (i.t.). The test article was administered in a volume of 0.05 ml-0.15 ml per mouse per treatment, depending on the group to which the animal was assigned. […] Normal saline was injected in a volume of 0.15 ml per mouse, which was used as vehicle control.
(§1) Animals were assigned to treatment groups randomly. Initially, all animals were placed in one large animal cage. For assignment to the study, they were later separately housed, with 6 animals per cage per treatment group. Groups 1 and 2 are Control groups in which the animals were each administered the vehicle every other day after the first treatment. […] The animals in Groups 4, 5 and 6 were each given rSIFN-co every other day after the first treatment at 0.15 mg/mouse (Group 4) or 0.10 mg/mouse (Group 5) or 0.05 mg/mouse (Group 6), respectively. Tumor growth was monitored by measuring the length and width of each tumor twice a week during the course of the study. Each animal was also weighed twice a week during the course of the study.
Before commencement of this study, the xenografts were passaged twice in nude mice. Under sterile conditions, well-grown tumors were cut into 1.5 mm^3 fragments and one such fragment was injected by trocar needle into the right flank of each study animal. […] Individual tumor size (length and width) was measured twice per week with microcalipers. Tumor volume (V) was calculated using the formula: V=(length×width^2)/2. Individual relative tumor volume (RTV) was calculated using the formula: RTV=Vt/V0, where Vt is the tumor volume on the day of measurement and V0 is the tumor volume on the day of first treatment. Therapeutic effect of the test article or control article was expressed in terms of TIC (%), using the formula: TIC (%) (mean RTV of the treated group/mean RTV of the control group)×100%; and in terms of % Inhibition, using the formula: % Inhibition=100%−T/C %.

[1] = Tolerability and body weight of tumor-bearing mice, Example 4; assay type: in vivo, BALB/cA nu/nu mice; settings: 0.05 mg/mouse i.t. every other day; day 17; reasons unknown
Description: as §1
The study was conducted as in Example 3, except as specifically indicated otherwise. Human xenografts for injection into the test animals were first established and prepared in a similar manner as in Example 1, but by inoculating 2.5×10^6 SPC-A4 cells subcutaneously (s.c.) in nude mice and passaging the well-grown tumors twice in nude mice. The 1.5 mm^3 fragments were then used for s.c. implantation into the test animals. The body weight of the animals averaged 22±2 g at dose initiation. In contrast to Example 3, the animals used in this study were all male and the study was conducted over a 21 day treatment period.

LRP6 mRNA in H460 cells = assay: qPCR of Wnt-related receptor LRP6; assay type: cell-based, human; settings: 10 μg/ml, 24 hr; vs Mock
Description: Total mRNA was isolated using TRIZOL Reagent (Invitrogen, Carlsbad, Calif.) according to the manufacturer's instructions. Complementary DNA (cDNA) was synthesized using a RT-PCR Kit (Cat #: FSQ-101, TOYOBO, Japan) according to the manufacturer's instructions and then subjected to qPCR with a SYBR Green PCR kit (Cat #: QPK-201, TOYOBO, Japan). The primers of the four Wnt pathway target genes were as follows: Axin2 sense primer: 5′-[…]-3′ (SEQ ID NO:8) and antisense primer: 5′-[…]-3′ (SEQ ID NO: 9); CD24 sense primer: 5′-[…]-3′ (SEQ ID NO: 10) andantisense primer: 5′-[…]-3′ (SEQ ID NO: 11); Survivin sense primer: 5′-[…]-3′ (SEQ ID NO: 12) and antisense primer: 5′-[…]-3′ (SEQ ID NO: 13) and ID2 sense primer: 5′-[…]-3′ (SEQ ID NO: 14) and antisense primer: 5′-[…]-3′ (SEQ ID NO: 15).
The amplification protocol consisted of incubations at 95° C. for 1 minute, 40 cycles (95° C. for 15 seconds, 60° C. for 15 seconds, 72° C. for 30 seconds). Incorporation of the SYBR Green dye into PCR products was monitored in real time with a Bio-Rad Detection System and subsequently analyzed using Bio-Rad CFX manager 2.1 software. The samples were pooled for each condition and run in duplicate. […]
The regulation of LRP6/FZD6 by rSIFN-co was investigated. […] Results were recorded as relative mRNA level of either LRP6 or FZD6 relative to GAPDH.

[2] = 0.05 mg/mouse i.t. every other day, day 21

B1: rSIFN-co: Recombinant super-compound interferon; amino acid sequence SEQ ID NO: 1 (same as interferon alfacon-1), encoded by SEQ ID NO: 2, novel tertiary structure (protein)
chain: MCDLPQTHSLGNRRALILLAQMRRISPFSCLKDRHDFGFPQEEFDGNQFQKAQAISVLHEMIQQTFNLFSTKDSSAAWDESLLEKFYTELYQQLNDLEACVIQEVGVEETPLMNVDSILAVKKYFQRITLYLTEKKYSPCAWEVVRAEIMRSFSLSTNLQERLRRKE
modifications: Amino acid sequence of recombinant interferon
- TV (mm^3, mean ± SD) (D0) (human hepatoma SMMC-7721; 0.05 mg/mouse i.t. every other day): 124 ± 26 mm^3
- % Inhibition (human hepatoma SMMC-7721; [2]): 48.10%
- TV (mm^3, mean ± SD) (D21) (human hepatoma SMMC-7721; [2]): 592 ± 139 mm^3
- TV (mm^3, mean ± SD) (D0) (human hepatoma SMMC-7721; 0.10 mg/mouse i.t. every other day): 124 ± 15 mm^3
- TV (mm^3, mean ± SD) (D21) (human hepatoma SMMC-7721; 0.10 mg/mouse i.t. every other day, day 21): 573 ± 287 mm^3
- TV (mm^3, mean ± SD) (D0) (human hepatoma SMMC-7721; 0.15 mg/mouse i.t. every other day): 123 ± 20 mm^3
- TV (mm^3, mean ± SD) (D21) (human hepatoma SMMC-7721; 0.15 mg/mouse i.t. every other day, day 21): 505 ± 226 mm^3
- deaths [1]: one mouse
- relative expression of the LRP6 mRNA (LRP6 mRNA in H460 cells): down-regulated to various extents
